Data on three molecules can be found in US11793825B2, “Biomarkers for predicting responsiveness to decitabine therapy” (The Regents of the University of Michigan, priority 2014, dated 2023).

Assay [1] concerns CMML patients. Briefly: GFM clinical trial cohort of CMML patients treated with Decitabine. In kind it is in vivo, human. The conditions noted are these: DAC 20 mg/m2/day x 5 days. Here is the method:
In order to independently validate the predictive accuracy of the SVM classifier, a second cohort of patients on which to test its performance was identified. Twenty-eight additional diagnostic CMML specimens from patients enrolled in a clinical trial from the Groupe Francophone des Myelodysplasies (GFM), all of whom had been treated with the same DAC regimen of 20 mg/m^2/day×5 days were collected and subjected to ERRBS (Table 2, Table 3). Specimens in this cohort consisted of sorted monocytes from peripheral blood (PB) and the cohort included 12 responder and 16 non-responder patients. The SVM classifier was applied blindly to these samples, without any prior knowledge of the therapeutic response labels for the cohort. Due to the stochastic nature of ERRBS, the CpG coverage is never identical across all samples, thereby leading to missing values for some regions of interest. In effect, only 6 out of the 21 features were present in all 28 GFM cohort samples. Therefore, an SVM classifier was built on these six shared features by training it on the 39 samples of the FISM cohort and then applying the trained classifier on the GFM cohort. As shown in FIG. 8D and FIG. 11B, despite this limitation the 6-feature classifier was still capable of correctly predicting response for 20/28 patients in the GFM cohort (accuracy=71%). […]

For assay [2], the system named is CMML patients. Briefly: FISM clinical trial cohort of CMML patients treated with Decitabine. Format: in vivo, human. The conditions noted are these: DAC 20 mg/m2/day x 5 days. The procedure:
To determine whether particular genetic or epigenetic abnormalities are associated with DMTi sensitivity or resistance in this disease a cohort of primary CMML cases was studied. Bone marrow mononuclear cells (BM MNC) were collected at the time of diagnosis from 40 patients with de novo CMML. All patients included in this study were enrolled in a clinical trial of the Fondazione Italiana per le Sindromi Mielodisplastiche (FISM) and treated with DAC single agent as front-line therapy (20 mg/m^2/day×5 days) and response was evaluated after 6 cycles of treatment. Responsive patients (n=20) were defined as those who achieved either complete remission (CR), marrow complete remission (mCR), partial remission (PR) or hematological improvement (HI), as defined by the 2006 International Working Group (IWG) response criteria in myelodysplasia (see, e.g., Cheson, B. D., Blood. 2006; 108(2):419-425). Patients with either stable or progressive disease (SD and PD, respectively) were considered as having primary resistance to DAC (n=20). […] Using MiSeq to sequence DNA isolated from the diagnostic BM MNC targeted re-sequencing of a panel of genes mutated at frequencies greater than 5% in CMML was performed: SRSF2, TET2, ASXL1, NRAS, DNMT3A, RUNX1, U2AF1, TP53, JAK2, KIT, KRAS, SF3B1, EZH2, IDH1, and IDH2. […]

The subject of assay [3] is primary human CD34+ cells. Briefly: Colony forming assay in methylcellulose. In kind it is cell-based. The conditions noted are these: chemokine 50 ng/mL (each) plus 10 nM DAC for 3 days. The procedure:
(§1) CD34+ cells were treated with one dose of CXCL4, CXCL7, or both (50 ng/mL each) or vehicle (PBS/0.1% BSA) and daily doses of 10 nM DAC for 3 days. After 3 days of in vitro treatment with DAC, the cells were plated in methylcellulose and incubated for 12-15 days before colonies were counted. Data represent mean+standard deviation (SD). […] Shown in the three panels are the results of three independent experiments. […] CMML MNC were treated in vitro for 72 h with 10 nM DAC alone or in the presence of 50 ng/mL of CXCL4, CXCL7, or both. Data represent mean+standard deviation (SD).
Cell culture and colony forming assays: CD34+ cells were isolated from cryopreserved BM MNC from femoral head specimens using the Miltenyi Biotec CD34 microbead isolation kit (San Diego, CA) per the manufacturer's instructions. For CMML cells, the cryopreserved BM MNC were rapidly thawed at 37° C. and treated with DNAse to prevent cell clumping. Cells were plated in pre-stimulation media (IMDM with 20% BIT (Stem Cell Technologies, Vancouver, BC, Canada), IL-6 (20 ng/mL), SCF (100 ng/ml), TPO (100 ng/mL), FLT3L (10 ng/mL); Peprotech, Rocky Hill, N.J.) and recovered overnight. […] Live cell number and viability were determined by trypan blue exclusion. […] Colonies were counted after 12 to 15 days.

For assay [4], the system named is primary CMML cells (BM MNC). Briefly: Viability of primary CMML BM MNC in liquid culture. In kind it is cell-based, human. Particulars: chemokine 50 ng/mL plus 10 nM DAC, 72 h. Here is the method:
as §1
Finally, the ability of CXCL4 and CXCL7 to induce resistance in primary CMML cells was tested. BM MNC from diagnostic specimens collected from 3 patients known to be sensitive to DAC were placed in liquid culture and treated for 72 h with 10 nM DAC in the presence or absence of 50 ng/mL of CXCL4, CXCL7 or a combination of both. Viability was assessed after 72 hours.
Cell culture and colony forming assays: CD34+ cells were isolated from cryopreserved BM MNC from femoral head specimens using the Miltenyi Biotec CD34 microbead isolation kit (San Diego, CA) per the manufacturer's instructions. […] Live cell number and viability were determined by trypan blue exclusion. […] Colonies were counted after 12 to 15 days.

Another assay relates to bone marrow cells. The conditions noted are these: in vitro; cited from earlier work.
In assay [5] the test system is primary human CD34+ cells. Briefly: CD34+ cell liquid culture, live cell number and viability by trypan blue exclusion. In kind it is cell-based. Particulars: 10 nM DAC daily for 3 days, with or without CXCL4/CXCL7 50 ng/mL each. Here is the method:
CD34+ cells were treated with one dose of CXCL4, CXCL7, or both (50 ng/mL each) or vehicle (PBS/0.1% BSA) and daily doses of 10 nM DAC for 3 days. After 3 days, live cell number (A) and viability (B) were assessed by trypan blue exclusion, and apoptosis (C) was analyzed by Annexin V and propodium iodide staining. The results shown are from one representative experiment out of two independent experiments.
Therefore, it was hypothesized that overabundance of CXCL4 and CXCL7 in the bone marrow microenvironment may act to overcome the effects of DAC. To test this, primary human CD34+ cells were cultured for 3 days in vitro with CXCL4 (50 ng/mL), CXCL7 (50 ng/mL) or a combination of both chemokines in either the presence or absence of low-dose DAC (10 nM) and then plated them in methylcellulose to test their clonogenic potential.
Cell culture and colony forming assays: CD34+ cells were isolated from cryopreserved BM MNC from femoral head specimens using the Miltenyi Biotec CD34 microbead isolation kit (San Diego, CA) per the manufacturer's instructions. For CMML cells, the cryopreserved BM MNC were rapidly thawed at 37° C. and treated with DNAse to prevent cell clumping. […] Live cell number and viability were determined by trypan blue exclusion. […] Colonies were counted after 12 to 15 days.

“Also recorded” adds a separate entry of the source.

As to `Nc1ncn([C@H]2C[C@H](O)[C@@H](CO)O2)c(=O)n1` [DAC, Decitabine], the “Median Survival” value worked out at 14.5 months with CMML patients [1] (non-responders (n=16)), 39 months in the assay with CMML patients [1] (responders (n=12)), 13.5 months in the assay on CMML patients [2] (non-responders (n=20)) and 26.5 months with CMML patients [2] (responders (n=20)).

B1: CXCL7: chemokine CXCL7 (also known as PPBP), Peprotech, used at 50 ng/mL (protein, UniProt P02775 59-128, looked up)
Neutrophil-activating peptide …: AELRCMCIKTTSGIHPKNIQSLEVIGKGTHCNQVEVIATLKDGRKICLDPDAPRIKKIVQKKLAGDESAD
modifications: Neutrophil-activating peptide 2
notes: chemokine CXCL7 (also known as PPBP), Peprotech, used at 50 ng/mL
B1: in assay [3], the “effect of chemokine on DAC-induced inhibition of colony formation” value is on record as “did not have a significant impact on DAC-induced colony inhibition”. The “effect of chemokine on the DAC-induced decrease in viability of primary CMML cells” value in assay [4] is listed as “abrogated the effect of DAC; also recorded: this effect was lost”. The “chemosensitivity of bone marrow cells to 5-fluorouracil” value in the assay on bone marrow cells was “can reduce the chemosensitivity of bone marrow cells to 5-fluorouracil”. Further, the “cell proliferation (live cell number)” value in assay [5] is given as “did not affect cell proliferation”.

B2: CXCL4: chemokine CXCL4 (also known as PF4), Peprotech, used at 50 ng/mL (protein, UniProt P02776 32-101, looked up)
Platelet factor 4: EAEEDGDLQCLCVKTTSQVRPRHITSLEVIKAGPHCPTAQLIATLKNGRKICLDLQAPLYKKIIKKLLES
Take B2: in assay [3], the “effect of chemokine on DAC-induced inhibition of colony formation” value is “did not have a significant impact on DAC-induced colony inhibition”. Also, in assay [4], the “effect of chemokine on the DAC-induced decrease in viability of primary CMML cells” value is “abrogated the effect of DAC; also recorded: this effect was lost”. Further, the “chemosensitivity of bone marrow cells to 5-fluorouracil” value in the assay with bone marrow cells is recorded as “can reduce the chemosensitivity of bone marrow cells to 5-fluorouracil”. The “cell proliferation (live cell number)” value in assay [5] is listed as “did not affect cell proliferation”.
